In PMC2811023 (Nucleic Acids Research, 2009):

T1: Staphylococcus aureus GatA (subunit A of the heterotrimeric tRNA-dependent amidotransferase GatCAB) (Staphylococcus aureus, UniProt P63488 1-485)
T1 sequence: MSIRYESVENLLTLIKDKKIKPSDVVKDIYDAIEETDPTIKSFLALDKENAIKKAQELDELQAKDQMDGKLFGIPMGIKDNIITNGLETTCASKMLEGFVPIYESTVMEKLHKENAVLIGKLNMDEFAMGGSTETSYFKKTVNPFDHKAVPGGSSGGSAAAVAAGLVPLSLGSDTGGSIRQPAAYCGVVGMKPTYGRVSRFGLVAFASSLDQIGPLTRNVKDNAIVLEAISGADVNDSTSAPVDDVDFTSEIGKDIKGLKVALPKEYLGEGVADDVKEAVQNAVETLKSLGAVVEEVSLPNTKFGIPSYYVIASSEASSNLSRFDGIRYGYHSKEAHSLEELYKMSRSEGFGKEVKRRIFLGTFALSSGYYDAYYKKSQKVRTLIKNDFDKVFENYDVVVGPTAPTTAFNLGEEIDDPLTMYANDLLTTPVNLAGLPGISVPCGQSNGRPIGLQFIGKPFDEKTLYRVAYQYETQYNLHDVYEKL

B1: Staphylococcus aureus GatC (subunit C of the heterotrimeric tRNA-dependent amidotransferase GatCAB) (natural protein)
chain: MTKVTREEVEHIANLARLQISPEETEEMANTLESILDFAKQNDSADTEGVEPTYHVLDLQNVLREDKAIKGIPQELALKNAKETEDGQFKVPTIMNEEDA
B2: Staphylococcus aureus GatB (subunit B of the heterotrimeric tRNA-dependent amidotransferase GatCAB) (enzyme)
chain: MHFETVIGLEVHVELKTDSKMFSPSPAHFGAEPNSNTNVIDLAYPGVLPVVNKRAVDWAMRAAMALNMEIATESKFDRKNYFYPDNPKAYQISQFDQPIGENGYIDIEVDGETKRIGITRLHMEEDAGKSTHKGEYSLVDLNRQGTPLIEIVSEPDIRSPKEAYAYLEKLRSIIQYTGVSDVKMEEGSLRCDANISLRPYGQEKFGTKAELKNLNSFNYVRKGLEYEEKRQEEELLNGGEIGQETRRFDESTGKTILMRVKEGSDDYRYFPEPDIVPLYIDDAWKERVRQTIPELPDERKAKYVNELGLPAYDAHVLTLTKEMSDFFESTIEHGADVKLTSNWLMGGVNEYLNKNQVELLDTKLTPENLAGMIKLIEDGTMSSKIAKKVFPELAAKGGNAKQIMEDNGLVQISDEATLLKFVNEALDNNEQSVEDYKNGKGKAMGFLVGQIMKASKGQANPQLVNQLLKQELDKR

What was measured:
[1] = biological target: T1, Staphylococcus aureus GatA (subunit A …); assay: crystal structure
[2] = biological target: B2; assay: crystal structure

B1: binds [1]; binds [2].

B2: binds [1].
